Measured values from the supplement of paper PMC11246515.
± gives the standard deviation of the averaged measurements.

Experiment: total protein half-life in vivo (active degradation + dilution); higher = more stable protein
[1] = E. coli NCM3722 delta-lon, growth: N-lim chemostat, doubling time 6 h
[2] = E. coli NCM3722 delta-smpB, growth: N-lim chemostat, doubling time 6 h
[3] = wild type E. coli NCM3722, growth: P-lim chemostat, doubling time 6 h
[4] = wild type E. coli NCM3722, growth: P-lim chemostat, doubling time 12 h
[5] = E. coli NCM3722 delta-clpP delta-lon delta-hslV, growth: N-lim chemostat, doubling time 6 h
[6] = E. coli NCM3722 delta-clpP, growth: N-lim chemostat, doubling time 6 h
[7] = E. coli NCM3722 delta-hslV, growth: N-lim chemostat, doubling time 6 h
[8] = wild type E. coli NCM3722, growth: C-lim chemostat, doubling time 3 h
[9] = wild type E. coli NCM3722, growth: C-lim chemostat, doubling time 6 h
[10] = wild type E. coli NCM3722, growth: C-lim chemostat, doubling time 12 h
[11] = wild type E. coli NCM3722, growth: N-lim chemostat, doubling time 6 h
[12] = wild type E. coli NCM3722, growth: N-lim chemostat, doubling time 12 h

| Sequence | total protein half-life in vivo [1] [h] | total protein half-life in vivo [2] [h] | total protein half-life in vivo [3] [h] | total protein half-life in vivo [4] [h] | total protein half-life in vivo [5] [h] | total protein half-life in vivo [6] [h] | total protein half-life in vivo [7] [h] | total protein half-life in vivo [8] [h] | total protein half-life in vivo [9] [h] | total protein half-life in vivo [10] [h] | total protein half-life in vivo [11] [h] | total protein half-life in vivo [12] [h] |
| --- | --- | --- | --- | --- | --- | --- | --- | --- | --- | --- | --- | --- |
| MSGLKQELGLAQGIGLLSTSLLGTGVFAVPALAALVAGNNSLWAWPVLIILVFPIAIVFAILGRHYPSAGGVAHFVGMAFGSRLERVTGWLFLSVIPVGLPAALQIAAGFGQAMFGWHSWQLLLAELGTLALVWYIGTRGASSSANLQTVIAGLIVALIVAIWWAGDIKPANIPFPAPGNIELTGLFAALSVMFWCFVGLEAFAHLASEFKNPERDFPRALMIGLLLAGLVYWGCTVVVLHFDAYGEKMAAAASLPKIVVQLFGVGALWIACVIGYLACFASLNIYIQSFARLVWSQAQHNPDHYLARLSSRHIPNNALNAVLGCCVVSTLVIHALEINLDALIIYANGIFIMIYLLCMLAGCKLLQGRYRLLAVVGGLLCVLLLAMVGWKSLYALIMLAGLWLLLPKRKTPENGITT | 3.09 | 5.32 | 4.1 | 12 | – | – | – | – | – | – | – | – |
| MANLSGYNFAYLDEQTKRMIRRAILKAVAIPGYQVPFGGREMPMPYGWGTGGIQLTASVIGESDVLKVIDQGADDTTNAVSIRNFFKRVTGVNTTERTDDATVIQTRHRIPETPLTEDQIIIFQVPIPEPLRFIEPRETETRTMHALEEYGVMQVKLYEDIARFGHIATTYAYPVKVNGRYVMDPSPIPKFDNPKMDMMPALQLFGAGREKRIYAVPPFTRVESLDFDDHPFTVQQWDEPCAICGSTHSYLDEVVLDDAGNRMFVCSDTDYCRQQSEAKNQ | – | – | 0.723 ± 0.41 | 1.37 ± 0.74 | – | – | – | – | – | – | – | – |
| MTVSSHRLELLSPARDAAIAREAILHGADAVYIGGPGFGARHNASNSLKDIAELVPFAHRYGAKIFVTLNTILHDDELEPAQRLITDLYQTGVDALIVQDMGILELDIPPIELHASTQCDIRTVEKAKFLSDVGFTQIVLARELNLDQIRAIHQATDATIEFFIHGALCVAYSGQCYISHAQTGRSANRGDCSQACRLPYTLKDDQGRVVSYEKHLLSMKDNDQTANLGALIDAGVRSFKIEGRYKDMSYVKNITAHYRQMLDAIIEERGDLARASSGRTEHFFVPSTEKTFHRGSTDYFVNARKGDIGAFDSPKFIGLPVGEVVKVAKDHLDVAVTEPLANGDGLNVLIKREVVGFRANTVEKTGENQYRVWPNEMPADLHKIRPHHPLNRNLDHNWQQALTKTSSERRVAVDIELGGWQEQLILTLTSEEGVSITHTLDGQFDEANNAEKAMNNLKDGLAKLGQTLYYARDVQINLPGALFVPNSLLNQFRREAADMLDAARLASYQRGSRKPVADPAPVYPQTHLSFLANVYNQKAREFYHRYGVQLIDAAYEAHEEKGEVPVMITKHCLRFAFNLCPKQAKGNIKSWKATPMQLVNGDEVLTLKFDCRPCEMHVIGKIKNHILKMPLPGSVVASVSPDELLKTLPKRKG | 2.74 ± 0.24 | 1.75 ± 0.024 | 2.13 ± 0.32 | 3.17 ± 0.38 | 4.77 ± 0.49 | 0.895 | 1.82 ± 0.064 | 1.911 ± 0.011 | 2.78 ± 0.12 | 3.03 ± 0.49 | 2.12 ± 0.058 | 2.47 ± 0.12 |
| MRLVQLSRHSIAFPSPEGALREPNGLLALGGDLSPARLLMAYQRGIFPWFSPGDPILWWSPDPRAVLWPESLHISRSMKRFHKRSPYRVTMNYAFGQVIEGCASDREEGTWITRGVVEAYHRLHELGHAHSIEVWREDELVGGMYGVAQGTLFCGESMFSRMENASKTALLVFCEEFIGHGGKLIDCQVLNDHTASLGACEIPRRDYLNYLNQMRLGRLPNNFWVPRCLFSPQE [P0A8P1] | – | – | – | – | – | 4.09 ± 0.21 | – | 0.705 ± 0.05 | – | – | – | – |
| MSNLTYLQGYPEQLLSQVRTLINEQRLGDVLAKRYPGTHDYATDKALWQYTQDLKNQFLRNAPPINKVMYDNKIHVLKNALGLHTAVSRVQGGKLKAKVEIRVATVFRNAPEPFLRMIVVHELAHLKEKEHNKAFYQLCCHMEPQYHQLEFDTRLWLTQLSLGQNKI | – | 1.71 | 1.84 ± 0.49 | 2.74 ± 0.62 | 5.45 ± 0.29 | 1.98 ± 0.15 | 1.16 | 3.09 | 1.64 ± 0.58 | 5.13 | 1.78 | 1.54 ± 0.21 |
| MKIAILSRDGTLYSCKRLREAAIQRGHLVEILDPLSCYMNINPAASSIHYKGRKLPHFDAVIPRIGTAITFYGTAALRQFEMLGSYPLNESVAIARARDKLRSMQLLARQGIDLPVTGIAHSPDDTSDLIDMVGGAPLVVKLVEGTQGIGVVLAETRQAAESVIDAFRGLNAHILVQEYIKEAQGCDIRCLVVGDEVVAAIERRAKEGDFRSNLHRGGAASVASITPQEREIAIKAARTMALDVAGVDILRANRGPLVMEVNASPGLEGIEKTTGIDIAGKMIRWIERHATTEYCLKTGG [P0C0U4] | 4.31 ± 0.27 | 3.78 ± 0.36 | 5.56 ± 0.65 | – | – | 4.13 ± 0.23 | 3.76 ± 0.12 | 2.85 ± 0.062 | 5.3 ± 0.24 | 10.9 ± 0.29 | 3.77 ± 0.19 | 6.029 ± 0.023 |
| MEYQHWLREAISQLQASESPRRDAEILLEHVTGRGRTFILAFGETQLTDEQCQQLDALLTRRRDGEPIAHLTGVREFWSLPLFVSPATLIPRPDTECLVEQALARLPEQPCRILDLGTGTGAIALALASERPDCEIIAVDRMPDAVSLAQRNAQHLAIKNIHILQSDWFSALAGQQFAMIVSNPPYIDEQDPHLQQGDVRFEPLTALVAADSGMADIVHIIEQSRNALVSGGFLLLEHGWQQGEAVRQAFILAGYHDVETCRDYGDNERVTLGRYYQ [P0ACC1] | 4.15 ± 0.14 | 3.23 | 5.35 ± 0.41 | 9.69 ± 0.87 | 4.72 ± 1.1 | 3.88 | 3.35 | – | 5.5 ± 0.85 | 9.85 | – | 5.79 ± 0.26 |
| MYQHHNWQGALLDYPVSKVVCVGSNYAKHIKEMGSAVPEEPVLFIKPETALCDLRQPLAIPSDFGSVHHEVELAVLIGATLRQATEEHVRKAIAGYGVALDLTLRDVQGKMKKAGQPWEKAKAFDNSCPLSGFIPAAEFTGDPQNTTLSLSVNGEQRQQGTTADMIHKIVPLIAYMSKFFTLKAGDVVLTGTPDGVGPLQSGDELTVTFDGHSLTTRVL | 5.67 ± 0.93 | 4.95 ± 0.3 | 5.856 ± 0.052 | 12.6 ± 0.54 | 6.01 ± 0.48 | 4.64 ± 0.98 | 5.44 ± 0.96 | 3.26 ± 0.39 | 6.22 ± 0.61 | 11.2 ± 0.037 | 5.18 ± 0.86 | 10.1 ± 0.033 |
